Measurements published in US20160185859A1 (Pfizer, published 2016).

T1: human 5T4 antigen expressed on cells (PC14PE6 cells; MDAMB435/5T4 cells) (human, UniProt Q13641 32-420)
T1 sequence: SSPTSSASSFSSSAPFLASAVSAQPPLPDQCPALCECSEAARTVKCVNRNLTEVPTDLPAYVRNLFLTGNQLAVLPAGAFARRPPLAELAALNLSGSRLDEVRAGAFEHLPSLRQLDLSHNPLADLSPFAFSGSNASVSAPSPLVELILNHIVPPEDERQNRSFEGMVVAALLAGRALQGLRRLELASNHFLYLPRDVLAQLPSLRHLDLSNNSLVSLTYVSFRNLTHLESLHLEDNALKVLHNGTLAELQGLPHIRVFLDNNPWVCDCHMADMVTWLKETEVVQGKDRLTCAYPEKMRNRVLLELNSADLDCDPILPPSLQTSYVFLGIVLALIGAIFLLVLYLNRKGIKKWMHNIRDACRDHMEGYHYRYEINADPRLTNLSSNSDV

T2: human 5T4 antigen (human, UniProt Q13641 32-355, limits assumed)
T2 sequence: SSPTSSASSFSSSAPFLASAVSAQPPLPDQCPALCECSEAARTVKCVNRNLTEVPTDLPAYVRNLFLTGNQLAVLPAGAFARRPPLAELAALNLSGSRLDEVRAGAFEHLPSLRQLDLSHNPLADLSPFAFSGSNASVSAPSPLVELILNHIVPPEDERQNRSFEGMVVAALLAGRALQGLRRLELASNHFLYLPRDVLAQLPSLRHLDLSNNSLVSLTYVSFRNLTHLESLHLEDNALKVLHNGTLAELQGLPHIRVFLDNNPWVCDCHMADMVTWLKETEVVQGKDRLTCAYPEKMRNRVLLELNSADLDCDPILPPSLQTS

T3: human 5T4 ectodomain Fc (human, UniProt Q13641 32-355)
T3 construct: also called human 5T4 ectodomain Fc fusion protein; Human 5T4 Ectodomain/Fc Fusion; not shown: Fc constant regions from human IgG1
T3 sequence: T2 sequence

T4: cynomologous monkey 5T4 ectodomain Fc (cynomologous monkey; human, UniProt Q4R8Y9 32-355)
T4 construct: not shown: Fc constant regions from human IgG1
T4 chain: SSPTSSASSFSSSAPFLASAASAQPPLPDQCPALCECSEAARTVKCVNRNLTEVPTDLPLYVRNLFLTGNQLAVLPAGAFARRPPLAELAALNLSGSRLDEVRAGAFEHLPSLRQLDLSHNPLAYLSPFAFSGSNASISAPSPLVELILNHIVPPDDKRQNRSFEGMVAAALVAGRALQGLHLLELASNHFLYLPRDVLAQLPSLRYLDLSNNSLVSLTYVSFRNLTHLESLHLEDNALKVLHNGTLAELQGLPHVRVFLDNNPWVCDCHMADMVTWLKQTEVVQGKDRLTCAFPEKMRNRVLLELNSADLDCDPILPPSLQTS

T5: black-tailed marmoset 5T4 ectodomain Fc (black-tailed marmoset; human, UniProt Q13641 32-355)
T5 construct: not shown: Fc constant regions from human IgG1
T5 chain: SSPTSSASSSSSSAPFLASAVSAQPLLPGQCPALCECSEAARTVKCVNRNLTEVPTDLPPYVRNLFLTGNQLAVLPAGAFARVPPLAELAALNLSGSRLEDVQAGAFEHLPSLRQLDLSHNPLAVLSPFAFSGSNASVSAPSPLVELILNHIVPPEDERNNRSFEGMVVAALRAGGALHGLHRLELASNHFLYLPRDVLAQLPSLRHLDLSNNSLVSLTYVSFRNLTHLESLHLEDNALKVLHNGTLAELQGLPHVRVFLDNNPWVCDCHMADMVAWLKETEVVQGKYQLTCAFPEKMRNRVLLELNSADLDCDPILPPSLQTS

B1: A2-AcBut-CalichDMH, A2 antibody conjugated to calicheamicin using 4-(4'-acetylphenoxy)butanoic acid (AcBut) (other)
VH: QVQLQQSRPELVKPGASVKMSCKASGYTFTDYVISWVKQRTGQGLEWIGEIYPGSNSIYYNEKFKGRATLTADKSSSTAYMQLSSLTSEDSAVYFCAMGGNYGFDYWGQGTTLTVSS
VL: QIVLTQSPAIMSASLGERVTLTCTASSSVNSNYLHWYQQKPGSSPKLWIYSTSNLASGVPARFSGSGSGTSYSLTISSMEAEDAATYYCHQYHRSPLTFGAGTKLELK
modifications: calicheamicin (CalichDMH) conjugated to the antibody through the AcBut linker; residues carrying it not stated
B2: chimeric A2 antibody (antibody, human IgG4, V domains shown)
VH: B1 VH
VL: B1 VL
notes: also called ChiA2; ChiA2 γ4
B3: chimeric A1 antibody (antibody, V domains shown)
VH: QIQLVQSGPELKKPGETVKISCKASGYTFTNFGMNWVKQGPGEGLKWMGWINTNTGEPRYAEEFKGRCAFSLETTASTAYLQINNLKNEDTATYFCARDWDGAYFFDYWGQGTTLTVSS
VL: SIVMTQTPKFLLVSAGDRVTITCKASQSVSNDVAWYQQKPGQSPKLLINFATNRYTGVPNRFTGSGYGTDFTFTISTVQAEDLALYFCQQDYSSPWTFGGGTKLEIK
modifications: Biotinylated when used as the labelled competitor in Table 13; the site is not stated.
notes: also called ChiA1; ChiA1 γ4

What was measured:
[1] = target: T1, human 5T4 antigen expressed on cells …; assay: cell-based or functional assay
[2] = target: T2, human 5T4 antigen; assay: BIACORE (SPR); human 5T4 antigen immobilized on CM5 chip
Description: To assess the binding specificity and affinity of the A1, A2, and A3 antibodies, BIACORE® analysis was performed using human 5T4 antigen immobilized on a CM5 chip. BIACORE® technology utilizes changes in the refractive index at the surface layer upon binding of the antibody to the 5T4 antigen immobilized on the layer. Binding is detected by surface plasmon resonance (SPR) of laser light refracting from the surface. Analysis of the signal kinetics on rate and off rate allows discrimination between non-specific and specific interactions. The H8 anti-5T4 antibody was used as a control. H8 is a hybridoma-generated monoclonal mouse IgG1 antibody described in PCT International Publication No. WO 98/55607 and in Forsberg et al. (1997) J. Biol. Chem. 272(19):[…].
To assess the binding specificity and affinity of the chimeric and humanized H8, A1, A2, and A3 antibodies, BIACORE® analysis was performed using human 5T4 antigen immobilized on a CM5 chip. See Example 2.

[3] = target: chimpanzee 5T4 ectodomain Fc (chimpanzee; human, UniProt P01857 99-330 = IgG part); assay: ELISA; 5T4 ectodomain/Fc fusion protein from transiently transfected COS-1 cells; given as ED50
Description: (§1) To assay binding of anti-5T4 antibodies, 5T4 ectodomain/Fc fusion proteins were transiently transfected into COS-1 cells, and ELISA assays were performed. Non-relevant human IgG4 and IgG1 antibodies were used as controls.

[4] = target: T3, human 5T4 ectodomain Fc; assay: as above
Description: as §1

[5] = target: T4, cynomologous monkey 5T4 ectodomain Fc; assay: as above
Description: as §1

[6] = target: T5, black-tailed marmoset 5T4 ectodomain Fc; assay: as above
Description: as §1

[7] = target: T2, human 5T4 antigen; assay: BIACORE; human 5T4 chip saturated with first antibody humanized H8 (competitor); 19 s after injection of second antibody
[8] = target: T2, human 5T4 antigen; assay: BIACORE; human 5T4 chip saturated with first antibody humanized H8 (competitor); 75 s after injection of second antibody
[9] = target: T2, human 5T4 antigen; assay: BIACORE; human 5T4 chip saturated with first antibody humanized H8 (competitor); 150 s after injection of second antibody
[10] = target: T2, human 5T4 antigen; assay: BIACORE; human 5T4 chip saturated with first antibody humanized H8 (competitor); 300 s after injection of second antibody
[11] = target: T2, human 5T4 antigen; assay: BIACORE; human 5T4 chip saturated with first antibody humanized H8 (competitor); 600 s after injection of second antibody
[12] = target: T2, human 5T4 antigen; assay: BIACORE; human 5T4 chip saturated with first antibody humanized H8 (competitor); 37.5 s after injection of second antibody
[13] = target: T2, human 5T4 antigen; assay: ELISA; inhibition of biotinylated chimeric A1 antibody binding to human 5T4

| Binder | Fold CalichDMH, MTS assay, MDAMB435/5T4 cells [1] [fold] | Ka [2] [M⁻¹] | Kd [2] [nM] | koff [2] [s⁻¹] | kon [2] [M⁻¹ s⁻¹] | EC50 [3] [nM] | EC50 [4] [nM] | EC50 [5] [nM] | EC50 [6] [nM] | percentage of second antibody bound following saturation with first antibody [7] [%] | percentage of second antibody bound following saturation with first antibody [8] [%] | percentage of second antibody bound following saturation with first antibody [9] [%] | percentage of second antibody bound following saturation with first antibody [10] [%] | percentage of second antibody bound following saturation with first antibody [11] [%] | percentage of second antibody bound following saturation with first antibody [12] [%] | IC50 [13] [nM] |
| --- | --- | --- | --- | --- | --- | --- | --- | --- | --- | --- | --- | --- | --- | --- | --- | --- |
| B1 | 0.13 |  |  |  |  |  |  |  |  |  |  |  |  |  |  |  |
| B2 |  | 5.7e+08 | 1.8 | 0.00025 | 140000 | 0.22 | 0.21 | 0.18 | 0.22 | 86.9 | 86.9 | 90.5 | 93.7 | 96.7 | 84.7 |  |
| B3 |  | 2.3e+09 | 0.44 | 6.7e-05 | 150000 | 0.27 | 0.28 | 0.18 | 0.24 | 92.7 | 93.8 | 95.8 | 97.3 | 98.7 | 92.4 | 16 to 20 |
